Reference: patent CN111333732A (UNIV CHINA PHARMA, dated 2020)

T1: BCMA-Fc蛋白 (human, UniProt Q02223 1-54)
T1 construct: Captured on a CM5 chip through anti-human Fc antibody for SPR; also called BCMA抗原; not shown: Fc part, captured by anti-human Fc antibody
T1 sequence (looked up): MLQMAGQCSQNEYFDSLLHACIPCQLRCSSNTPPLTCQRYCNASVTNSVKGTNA

T2: NKG2D-Fc蛋白 (UniProt P26718 78-216, limits assumed)
T2 construct: Captured on a CM5 chip through anti-human Fc antibody for SPR; not shown: Fc part, captured by anti-human Fc antibody
T2 sequence (looked up): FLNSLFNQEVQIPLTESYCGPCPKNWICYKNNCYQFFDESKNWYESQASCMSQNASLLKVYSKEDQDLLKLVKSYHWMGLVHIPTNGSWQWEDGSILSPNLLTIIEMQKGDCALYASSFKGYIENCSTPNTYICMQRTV

B1: 抗人BCMA单链抗体2A9 (scFv)
scFv: ASMAEVQLQQSGAELVKPGASVKLSCTASGFNIKDTYMHWVKQRPEQGLEWIGRIDPANGNTKYDPKFQGKATITADTSSNTAYLQLSSLTSEDTAVYYCARWVYWGQGTTLTVSTGGGGSDVVMTQSPSSMYASLGERVTITCKASQDINSYLSWFQQKPGKSPKTLIYRANRLVDGVPSRFSGSGSGQDYSLTISSLEYEDMGIYYCLQYDEFPYTFGGGTKLEIKR
notes: Parental scFv from phage display; also called rG7S
B2: 双特异性抗体2A9-MICA (anti-human BCMA scFv 2A9 fused to human MICA extracellular regions 1-3) (bispecific antibody)
chain: MAEVQLQQSGAELVKPGASVKLSCTASGFNIKDTYMHWVKQRPEQGLEWIGRIDPANGNTKYDPKFQGKATITADTSSNTAYLQLSSLTSEDTAVYYCARWVYWGQGTTLTVSTGGGGSDVVMTQSPSSMYASLGERVTITCKASQDINSYLSWFQQKPGKSPKTLIYRANRLVDGVPSRFSGSGSGQDYSLTISSLEYEDMGIYYCLQYDEFPYTFGGGTKLEIKRGSGGGGSEPHSLRYNLTVLSWDGSVQSGFLAEVHLDGQPFLRYDRQKCRAKPQGQWAEDVLGNKTWDRETRDLTGNGKDLRMTLAHIKDQKEGLHSLQEIRVCEIHEDNSTRSSQHFYYDGELFLSQNLETEEWTVPQSSRAQTLAMNVRNFLKEDAMKTKTHYHAMHADCLQELRRYLESGVVLRRTVPPMVNVTRSEASEGNITVTCRASSFYPRNIILTWRQDGVSLSHDTQQWGDVLPDGNGTYQTWVATRICRGEEQRFTCYMEHSGNHSTHPVPSGKVLVLQSHW
notes: also called 抗体融合蛋白2A9-MICA; rG7S-MICA

Key:
[1] = biological target: T1, BCMA-Fc蛋白; test: SPR, Biacore X100, BCMA-Fc captured by anti-human Fc on CM5, 2A9 as analyte
[2] = biological target: T1, BCMA-Fc蛋白; test: SPR, Biacore X100, BCMA-Fc captured by anti-human Fc on CM5, 2A9-MICA as analyte
[3] = biological target: T2, NKG2D-Fc蛋白; test: SPR, Biacore X100, NKG2D-Fc captured by anti-human Fc on CM5, 2A9-MICA as analyte

Row | Binder | Kd [1] [nM] | Kd [2] [nM] | Kd [3] [nM]
1 | B1 | 34.6 | – | –
2 | B2 | – | 76 | 3470
